Source: patent US20240400708A1
Where a chain is given by its changes, count along the chain named. Names may count otherwise.

B1: feline IgG1a Fc mutant S428L, S252Y (antibody, part only; not given: Variable domains, not shown: another chain or arm of the molecule)
constant: ASTTAPSVFPLAPSCGTTSGATVALACLVLGYFPEPVTVSWNSGALTSGVHTFPAVLQASGLYSLSSMVTVPSSRWLSDTFTCNVAHPPSNTKVDKTVRKTDHPPGPKPCDCPKCPPPEMLGGPSIFIFPPKPKDTLYISRTPEVTCLVVDLGPDDSDVQITWFVDNTQVYTAKTSPREEQFNSTYRVVSVLPILHQDWLKGKEFKCKVNSKSLPSPIERTISKAKGQPHEPQVYVLPPAQEELSRNKVSVTCLIKSFHPPDIAVEWEITGQPEPENNYRTTPPQLDSDGTYFVYSKLSVDRSHWQRGNTYTCSVLHEALHSHHTQKSLTQSPGK
B2: feline IgG1a Fc mutant S428L, S434H (antibody, part only; not given: Variable domains, not shown: another chain or arm of the molecule; small tags and cut ends)
constant: B1 constant with Y138S, S322H
B3: feline IgG1a Fc mutant Q311R, S428L (antibody, part only; not given: Variable domains, not shown: another chain or arm of the molecule; small tags and cut ends)
constant: B1 constant with Y138S, Q197R
B4: feline IgG1a Fc mutant S428Y, S434H (antibody, part only; not given: Variable domains, not shown: another chain or arm of the molecule; small tags and cut ends)
constant: B1 constant with Y138S, L316Y, S322H
B5: feline IgG1a Fc mutant Q311H, S428L (antibody, part only; not given: Variable domains, not shown: another chain or arm of the molecule; small tags and cut ends)
constant: B1 constant with Y138S, Q197H
B6: feline IgG1a Fc mutant Q311H, S428M (antibody, part only; not given: Variable domains, not shown: another chain or arm of the molecule; small tags and cut ends)
constant: B1 constant with Y138S, Q197H, L316M
B7: feline IgG1a Fc mutant S428M, S434H (antibody, part only; not given: Variable domains, not shown: another chain or arm of the molecule; small tags and cut ends)
constant: B1 constant with Y138S, L316M, S322H
B8: feline IgG1a Fc mutant Q311L, S428L (antibody, part only; not given: Variable domains, not shown: another chain or arm of the molecule; small tags and cut ends)
constant: B1 constant with Y138S, Q197L
B9: feline IgG1a Fc mutant Q311M, S428L (antibody, part only; not given: Variable domains, not shown: another chain or arm of the molecule; small tags and cut ends)
constant: B1 constant with Y138S, Q197M
B10: feline IgG1a Fc mutant S428L, S434R (antibody, part only; not given: variable domains and light chain, not shown: another chain or arm of the molecule; small tags and cut ends)
constant: B1 constant with Y138S, S322R
B11: feline IgG1a Fc mutant Q311Y, S428L (antibody, part only; not given: Variable domains, not shown: another chain or arm of the molecule; small tags and cut ends)
constant: B1 constant with Y138S, Q197Y
B12: feline IgG1a Fc mutant S428L, S252F (antibody, part only; not given: Variable domains, not shown: another chain or arm of the molecule; small tags and cut ends)
constant: B1 constant with Y138F
B13: feline IgG1a Fc mutant Q311Y, S428Y (antibody, part only; not given: Variable domains, not shown: another chain or arm of the molecule)
constant: B1 constant with Y138S, Q197Y, L316Y
B14: feline IgG1a Fc mutant S428Y, S434R (antibody, part only; not given: Variable domains, not shown: another chain or arm of the molecule; small tags and cut ends)
constant: B1 constant with Y138S, L316Y, S322R
B15: feline IgG1a Fc mutant Q311Y, S428M (antibody, part only; not given: Variable domains, not shown: another chain or arm of the molecule; small tags and cut ends)
constant: B1 constant with Y138S, Q197Y, L316M
B16: feline IgG1a Fc mutant S428Y, S252F (antibody, part only; not given: Variable domains, not shown: another chain or arm of the molecule)
constant: B1 constant with Y138F, L316Y
B17: feline IgG1a Fc mutant Q311W, S428M (antibody, part only; not given: Variable domains, not shown: another chain or arm of the molecule; small tags and cut ends)
constant: B1 constant with Y138S, Q197W, L316M
B18: feline IgG1a Fc mutant S428L, S434Y (antibody, part only; not given: Variable domains, not shown: another chain or arm of the molecule; small tags and cut ends)
constant: B1 constant with Y138S, S322Y
B19: feline IgG1a Fc mutant Q311H, S428Y (antibody, part only; not given: Variable domains, not shown: another chain or arm of the molecule)
constant: B1 constant with Y138S, Q197H, L316Y
B20: feline IgG1a Fc mutant S428L, S252W (antibody, part only; not given: Variable domains, not shown: another chain or arm of the molecule; small tags and cut ends)
constant: B1 constant with Y138W
B21: feline IgG1a Fc mutant S428Y, S252H (antibody, part only; not given: Variable domains, not shown: another chain or arm of the molecule; small tags and cut ends)
constant: B1 constant with Y138H, L316Y
B22: feline IgG1a Fc mutant Q311L, S428M (antibody, part only; not given: Variable domains, not shown: another chain or arm of the molecule; small tags and cut ends)
constant: B1 constant with Y138S, Q197L, L316M
B23: feline IgG1a Fc mutant Q311M, S428M (antibody, part only; not given: Variable domains, not shown: another chain or arm of the molecule; small tags and cut ends)
constant: B1 constant with Y138S, Q197M, L316M
B24: feline IgG1a Fc mutant Q311M, S428Y (antibody, part only; not given: variable domains, not shown: another chain or arm of the molecule; small tags and cut ends)
constant: B1 constant with Y138S, Q197M, L316Y
B25: feline IgG1a Fc mutant S428M, S252H (antibody, part only; not given: Variable domains, not shown: another chain or arm of the molecule; small tags and cut ends)
constant: B1 constant with Y138H, L316M
B26: feline IgG1a Fc mutant Q311L, S428Y (antibody, part only; not given: Variable domains, not shown: another chain or arm of the molecule)
constant: B1 constant with Y138S, Q197L, L316Y
B27: feline IgG1a Fc mutant S428M, S252F (antibody, part only; not given: Variable domains, not shown: another chain or arm of the molecule; small tags and cut ends)
constant: B1 constant with Y138F, L316M
B28: feline IgG1a Fc mutant S428Y, S252W (antibody, part only; not given: Variable domains, not shown: another chain or arm of the molecule)
constant: B1 constant with Y138W, L316Y
B29: feline IgG1a Fc mutant Q311K, S428L (antibody, part only; not given: variable domains and light chain, not shown: another chain or arm of the molecule; small tags and cut ends)
constant: B1 constant with Y138S, Q197K
B30: feline IgG1a Fc mutant Q311K, S428M (antibody, part only; not given: Variable domains, not shown: another chain or arm of the molecule; small tags and cut ends)
constant: B1 constant with Y138S, Q197K, L316M
B31: feline IgG1a Fc mutant S428M, S434R (antibody, part only; not given: variable domains, not shown: another chain or arm of the molecule; small tags and cut ends)
constant: B1 constant with Y138S, L316M, S322R
B32: feline IgG1a Fc mutant Q311R, S428M (antibody, part only; not given: variable domains and light chain, not shown: another chain or arm of the molecule; small tags and cut ends)
constant: B1 constant with Y138S, Q197R, L316M
B33: feline IgG1a Fc mutant Q311W, S428Y (antibody, part only; not given: Variable domains, not shown: another chain or arm of the molecule)
constant: B1 constant with Y138S, Q197W, L316Y
B34: feline IgG1a Fc mutant S428Y, S252Y (antibody, part only; not given: Variable domains, not shown: another chain or arm of the molecule; small tags and cut ends)
constant: B1 constant with L316Y
B35: feline IgG1a Fc mutant S428M, S252W (antibody, part only; not given: variable domains and light chain, not shown: another chain or arm of the molecule; small tags and cut ends)
constant: B1 constant with Y138W, L316M
B36: feline IgG1a Fc mutant Q311R, S428Y (antibody, part only; not given: Variable domains, not shown: another chain or arm of the molecule; small tags and cut ends)
constant: B1 constant with Y138S, Q197R, L316Y
B37: feline IgG1a Fc mutant S428L, S252H (antibody, part only; not given: variable domains and light chain, not shown: another chain or arm of the molecule; small tags and cut ends)
constant: B1 constant with Y138H
B38: feline IgG1a Fc mutant Q311W, S428L (antibody, part only; not given: Variable domains, not shown: another chain or arm of the molecule; small tags and cut ends)
constant: B1 constant with Y138S, Q197W
B39: feline IgG1a mutant ID No. 364: S252Y, S434R, D401R (antibody, part only; not given: Variable domains, not shown: another chain or arm of the molecule)
constant: B1 constant with D289R, L316S, S322R
B40: feline IgG1a mutant ID No. 374: S252Y, S434R, Q311Y (antibody, part only; not given: Variable domains, not shown: another chain or arm of the molecule)
constant: B1 constant with Q197Y, L316S, S322R
B41: feline IgG1a mutant ID No. 368: S252Y, S434R, L314K (antibody, part only; not given: Variable domains, not shown: another chain or arm of the molecule)
constant: B1 constant with L200K, L316S, S322R
B42: feline IgG1a mutant ID No. 371: S252Y, S434R, Q311K (antibody, part only; not given: Variable domains, not shown: another chain or arm of the molecule)
constant: B1 constant with Q197K, L316S, S322R
B43: feline IgG1a mutant ID No. 376: S252Y, S434R, T250Q (antibody, part only; not given: Variable domains, not shown: another chain or arm of the molecule)
constant: B1 constant with T136Q, L316S, S322R
B44: feline IgG1a mutant ID No. 373: S252Y, S434R, Q311R (antibody, part only; not given: Variable domains, not shown: another chain or arm of the molecule)
constant: B1 constant with Q197R, L316S, S322R
B45: feline IgG1a mutant ID No. 369: S252Y, S434R, P247L (antibody, part only; not given: Variable domains, not shown: another chain or arm of the molecule)
constant: B1 constant with P133L, L316S, S322R
B46: feline IgG1a mutant ID No. 378: S252Y, S434R, T403R (antibody, part only; not given: Variable domains, not shown: another chain or arm of the molecule)
constant: B1 constant with T291R, L316S, S322R
B47: feline IgG1a mutant ID No. 372: S252Y, S434R, Q311M (antibody, part only; not given: Variable domains, not shown: another chain or arm of the molecule)
constant: B1 constant with Q197M, L316S, S322R
B48: feline IgG1a mutant ID No. 377: S252Y, S434R, T256M (antibody, part only; not given: Variable domains, not shown: another chain or arm of the molecule)
constant: B1 constant with T142M, L316S, S322R
B49: feline IgG1a mutant ID No. 375: S252Y, S434R, S254V (antibody, part only; not given: Variable domains, not shown: another chain or arm of the molecule)
constant: B1 constant with S140V, L316S, S322R
B50: feline IgG1a mutant ID No. 367: S252Y, S434R, G402R (antibody, part only; not given: Variable domains, not shown: another chain or arm of the molecule)
constant: B1 constant with G290R, L316S, S322R
B51: feline IgG1a mutant ID No. 370: S252Y, S434R, Q311H (antibody, part only; not given: variable domains and light chain, not shown: another chain or arm of the molecule)
constant: B1 constant with Q197H, L316S, S322R

The binders below were run against Feline FcRn complex (FcRn-alpha subunit and beta-microglobulin) (feline) (assay: SPR (Biacore), feline FcRn captured on SA chip, IgG flowed over, pH 6).

Binder	Kd
B1	4.88 nM
B2	2.58 nM
B3	5.47 nM
B4	2.27 nM
B5	7.19 nM
B6	6.58 nM
B7	3.09 nM
B8	6.03 nM
B9	6.44 nM
B10	4.66 nM
B11	5.72 nM
B12	6.52 nM
B13	5.57 nM
B14	3.85 nM
B15	5.73 nM
B16	6.62 nM
B17	6.51 nM
B18	0.933 nM
B19	6.92 nM

Binder	Kd
B20	6.14 nM
B21	6.41 nM
B22	5.7 nM
B23	5.66 nM
B24	5.72 nM
B25	6.83 nM
B26	4.74 nM
B27	5.9 nM
B28	2.95 nM
B29	5.62 nM
B30	6.16 nM
B31	5.46 nM
B32	5.28 nM
B33	6.35 nM
B34	8.58 nM
B35	4.65 nM
B36	4.81 nM
B37	5.94 nM
B38	8.08 nM

The binders below were run against feline FcRn complex (FcRn-α subunit and β-microglobulin) (feline) (assay: SPR (Biacore), FcRn on SA chip, pH 6).

Binder	Kd
B39	0.732 nM
B40	0.715 nM
B41	1.3 nM
B42	0.488 nM
B43	0.394 nM
B44	0.365 nM
B45	0.442 nM
B46	0.859 nM
B47	0.443 nM
B48	1.55 nM
B49	0.551 nM
B50	0.885 nM
B51	0.974 nM

Each binder was assayed against feline FcRn complex (FcRn-α subunit and β-microglobulin) (feline) (assay: SPR (Biacore), FcRn on SA chip, pH 7.4).

Binder	Kd
B39	24.4 nM
B40	30.3 nM
B41	25.6 nM
B42	10.7 nM
B43	24.6 nM
B44	12.9 nM
B45	26.5 nM
B46	25.8 nM
B47	21.9 nM
B48	25.6 nM
B49	34.1 nM
B50	44.8 nM
B51	31.3 nM

Each binder was assayed against Feline FcRn complex (FcRn-alpha subunit and beta-microglobulin) (feline) (assay: SPR (Biacore), feline FcRn captured on SA chip, IgG flowed over, pH 7.4).

Binder	Kd
B2	43.9 nM
B18	22.2 nM
